This is an account of results in US20240109955A1.

Read-outs that look alike come from different tables or passages of the source.

Assay in all cases: cell-based or functional assay
For experiment [1], the target named is SARS-CoV-2 spike (S) protein, Omicron sublineage XBB1.5 (SARS-CoV-2).
The target of experiment [2] is SARS-CoV-2 spike (S) protein, Omicron sublineage BF.7 (SARS-CoV-2).
The target in experiment [3] is SARS-CoV-2 spike (S) protein, Omicron sublineage XBB (SARS-CoV-2).
The target is the same in experiment [4]. This is another data set of the same source.
The target of experiment [5] is SARS-CoV-2 spike (S) protein, Omicron sublineage BQ.1.1 (SARS-CoV-2).
Experiment [6] has as its target SARS-CoV-2 spike (S) protein, Omicron sublineage BQ.1 (SARS-CoV-2).
Experiment [7] concerns the target SARS-CoV-2 Omicron BQ.1.1 spike protein (SARS-CoV-2).
Experiment [8] concerns the target SARS-CoV-2 Omicron BA.4/5 spike protein (SARS-CoV-2).
Experiment [9] has as its target SARS-CoV-2 Omicron BQ.1 spike protein (SARS-CoV-2).
Experiment [10] has as its target SARS-CoV-2 Omicron BA.2.75.2 spike protein (SARS-CoV-2).
Experiment [11] deals with SARS-CoV-2 Omicron XBB spike protein (SARS-CoV-2).

B1: A46 + E12 + B8 (protein)
VH 1: QVQLVESGGGVVQPGRSLRLSCAASGFTLSSYGMHWVRQAPGKGLEWVAVISYDGSNKYYVDSVKGRFTISRDNSKNTLYLQMNSLRAEDTAVYYCRWAYWELLPDYYYGMDVWGQGTTVTVSS
VL 1: QTVVTQEPSFSVSPGGTVTLTCGLSSGSVSTAYFPSWYQQTPGQAPRTLIYGTNTRSSGVPDRFSGSILGNKAALTITGAQADDESDYYCVLYMGRGIVVFGGGTKLTVL
VH 2: EVQLVESGGGLIQPGGSLRLSCAASGVIVSYNYMNWVRQAPGKGLEWVSVIYSGGSTFYADSVRGRFTISRDNSKNTLYLQMNSLRAEDTAVYYCARDLGPAGAFDIWGLGTMVTVSS
VL 2: EIVLTQSPGTLSLSPGETATLSCRASQSFSSDLAWYQQKPGQAPRLLIYGASSRATGIPDRFSGSGSGTDFTLTISRLEPADFAVYYCQQYGSSPPVTFGGGTKVEIK
VH 3: EVQLVESGGALIQPGGSLRLSCAASGIIVSANYMSWVRQAPGKGLEWVSVIYSGGSTFYADSVKGRFTISRDNSKNTLYLEMNSLRAEDTAVYYCARDAPILGVSDWGQGTLVTVSS
VL 3: EIVMTQSPAILSVSPGERATLSCRASQSVAINLAWYQQKPGQAPRLLIYAASSRATGIPGRFSGSGSETNFTLTISSLQSGDFAVYYCQQYITWPPSYTFGQGTKLEIK
Turning to B1, in [1], the IC50, pseudovirus neutralization stood at 12 nM and the IC80, pseudovirus neutralization worked out at 33 nM. In [2], this molecule had an IC50, pseudovirus neutralization of 12.9 nM and an IC80, pseudovirus neutralization of 33.8 nM.

B2: A19-46 + E8 + B8 (protein)
VH 1: B1 VH 1
VL 1: B1 VL 1
VH 2: QVTLRESGPALVKPTQTLTLTCTFSGFSLSTRGVCVSWIRQPPGKALEWLAFIDWDDDKYYNTSLKTRLTISKDTSKNQVVLTMTNVHPVDTATYYCARISSHHGSSWCTTFDYWGQGALVTVSA
VL 2: DTVMTQSPLSLPVTPGEPASISCRSSQSLLNSNGYNYLDWYVQKPGQSPQLLIYLGSNRASGVPDRFSGSGSGTDFTLKISRVEAEDVGVYYCMQPLQTPLFTFGPGTKVEIK
VH 3: B1 VH 3
VL 3: B1 VL 3
In the case of B2, the IC50, pseudovirus neutralization in experiment [3] is 11.3 nM; in experiment [4], 11.3 ng/mL; in experiment [5], 11.1 ng/mL; in experiment [6], 16 ng/mL. For the same molecule, the IC80, pseudovirus neutralization in experiment [3] is 17.7 nM; in [4] it was 17.7 ng/mL; in experiment [5], 17 ng/mL; in experiment [6] it was 52.2 ng/mL.

B3: A46 + E12 + E8 (protein)
VH 1: B1 VH 1
VL 1: B1 VL 1
VH 2: B1 VH 2
VL 2: B1 VL 2
VH 3: B2 VH 2
VL 3: B2 VL 2
In [1], B3 showed an IC50, pseudovirus neutralization of 37.8 nM and an IC80, pseudovirus neutralization of 96.7 nM. In experiment [2], this molecule registered an IC50, pseudovirus neutralization of 12 nM and an IC80, pseudovirus neutralization of 30.6 nM.

B4: MX1046 (bispecific antibody)
chain 1: EIVLTQSPGTLSLSPGETATLSCRASQSFSSDLAWYQQKPGQAPRLLIYGASSRATGIPDRFSGSGSGTDFTLTISRLEPADFAVYYCQQYGSSPPVTFGGGTKVEIKGGSSGDTVMTQSPLSLPVTPGEPASISCRSSQSLLNSNGYNYLDWYVQKPGQSPQLLIYLGSNRASGVPDRFSGSGSGTDFTLKISRVEAEDVGVYYCMQPLQTPLFTFGPGTKVEIKGGGGSGGSGSGGGGSASGSGQVTLRESGPALVKPTQTLTLTCTFSGFSLSTRGVCVSWIRQPPGKALEWLAFIDWDDDKYYNTSLKTRLTISKDTSKNQVVLTMTNVHPVDTATYYCARISSHHGSSWCTTFDYWGQGALVTVSAGGSSGEVQLVESGGGLIQPGGSLRLSCAASGVIVSYNYMNWVRQAPGKGLEWVSVIYSGGSTFYADSVRGRFTISRDNSKNTLYLQMNSLRAEDTAVYYCARDLGPAGAFDIWGLGTMVTVSSASGGSGDKTHTCPPCPAPELLGGPSVFLFPPKPKDTLMISRTPEVTCVVVDVSHEDPEVKFNWYVDGVEVHNAKTKPREEQYNSYVVSVLTVLHQDWLNGKEYKCKVSNKALPAPIEKTISKAKGQPREPQVYTLPPCRDELTKNQVSLWCLVKGFYPSDIAVEWESNGQPENNYKTTPPVLDSDGSFFKKLTVDKSRWQQGNVFSCSVLHEALHSHYTQKSLSLSPG
chain 2: DTVMTQSPLSLPVTPGEPASISCRSSQSLLNSNGYNYLDWYVQKPGQSPQLLIYLGSNRASGVPDRFSGSGSGTDFTLKISRVEAEDVGVYYCMQPLQTPLFTFGPGTKVEIKGGSSGEIVLTQSPGTLSLSPGETATLSCRASQSFSSDLAWYQQKPGQAPRLLIYGASSRATGIPDRFSGSGSGTDFTLTISRLEPADFAVYYCQQYGSSPPVTFGGGTKVEIKGGGGSGGSGSGGGGSASGSGEVQLVESGGGLIQPGGSLRLSCAASGVIVSYNYMNWVRQAPGKGLEWVSVIYSGGSTFYADSVRGRFTISRDNSKNTLYLQMNSLRAEDTAVYYCARDLGPAGAFDIWGLGTMVTVSSGGSSGQVTLRESGPALVKPTQTLTLTCTFSGFSLSTRGVCVSWIRQPPGKALEWLAFIDWDDDKYYNTSLKTRLTISKDTSKNQVVLTMTNVHPVDTATYYCARISSHHGSSWCTTFDYWGQGALVTVSAASGGSGDKTHTCPPCPAPELLGGPSVFLFPPKPKDTLMISRTPEVTCVVVDVSHEDPEVKFNWYVDGVEVHNAKTKPREEQYNSYVVSVLTVLHQDWLNGKEYKCKVSNKALPAPIEKTISKAKGQPREPQVCTLPPSRDELTKNQVSLSCAVKGFYPSDIAVEWESNGQPENNYKTTPPVLDSDGSFFLVSKLTVDKSRWQQGNVFSCSVLHEALHSHYTQKSLSLSPG
Regarding B4, the IC50, pseudovirus neutralization in [7] came out at 1.23 ng/mL; in experiment [8] it was 0.9 ng/mL; in [9], 1.66 ng/mL; in [10], 0.36 ng/mL; in experiment [11], 1.26 ng/mL. The IC80, pseudovirus neutralization in experiment [7] was 3.97 ng/mL; in experiment [8], 1.56 ng/mL; in [9] it was 4.08 ng/mL; in experiment [10] it was 1.29 ng/mL; in experiment [11], 2.88 ng/mL.
